The series deals with the molecule itself. The series can be described thus: SEC. (SEC sorts molecules by how far they enter the pores of the column.)

For orientation: stoichiometry N means a count of units in the complex or per binding partner.

B1: EcPAPR4cys (enzyme, Escherichia coli)
chain: MSKLDLNALNELPKVDRILALAETNAELEKLDAEGRVAWALDNLPGEYVLSSSFGIQAAVSLHLVNQIRPDIPVILTDTGYLFPETYRFIDELTDKLKLNLKVYRATESAAWQEARYGKLWEQGVEGIEKCCDINKVEPMNRALKELNAQTWFAGLRREQSGSRANLPVLAIQRGVFKVLPIIDWDNRTIYQYLQKHGLKYHPLWDEGYLSVGCTHCTRKWEPGMAEEETRFFGLKRECGLHEG
B1: the “stoichiometry N” value worked out at 2.

Values taken from PMC3288176 (ACS Chemical Biology, 2011).
